Laboratory results as given in article PMC9610538, “Trihelix Transcriptional Factor GhGT26 of Cotton Enhances Salinity Tolerance in Arabidopsis”.

T1: GhGT26 (GST fusion) (Gossypium hirsutum, UniProt A0A8J9W0A6 1-391)
T1 sequence: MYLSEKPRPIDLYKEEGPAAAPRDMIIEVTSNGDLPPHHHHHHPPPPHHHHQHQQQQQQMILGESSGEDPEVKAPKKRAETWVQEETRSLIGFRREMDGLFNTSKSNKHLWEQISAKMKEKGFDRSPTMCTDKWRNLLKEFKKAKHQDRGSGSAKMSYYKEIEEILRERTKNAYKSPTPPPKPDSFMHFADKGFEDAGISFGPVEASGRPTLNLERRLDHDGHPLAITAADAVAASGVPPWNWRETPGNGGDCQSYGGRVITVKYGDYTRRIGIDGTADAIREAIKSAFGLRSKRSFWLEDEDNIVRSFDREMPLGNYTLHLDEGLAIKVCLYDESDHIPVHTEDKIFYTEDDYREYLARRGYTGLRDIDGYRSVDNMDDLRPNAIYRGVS

B1: Site1-type (GT-3a) (dsDNA)
DNA 1: GCGTTACCGTTACCGTTACCAA
DNA 2: TTGGTAACGGTAACGGTAACGC
B2: MRE4 (dsDNA)
DNA 1: TATCTCACCTCTCACCTCTCACCGT
DNA 2: ACGGTGAGAGGTGAGAGGTGAGATA
B3: MRE3 (dsDNA)
DNA 1: TCTAACCTACTAACCTACTAACCTACCA
DNA 2: TGGTAGGTTAGTAGGTTAGTAGGTTAGA

molecular target: T1, GhGT26 (GST fusion); test: EMSA; signal dramatically reduced by unlabeled competitor; Oligos annealed in 50 mM NaCl (70 °C 5 min, then room temperature); EMSA binding buffer, pH and temperature not given (as in ref. 48); settings: protein: recombinant; tags: GST (pGEX6p-1); label: digoxigenin; blunt (reverse complement stated)

Binding result, binds:
B1
B2
B3
